{"source": "patent US20140106352A1", "about": "(DUKE UNIVERSITY, published 2014)", "binders": {"B1": {"name": "anillin (ANLN), wild-type, endogenous in immortalized human podocytes (other)", "chain": "MDPFTEKLLERTRARRENLQRKMAERPTAAPRSMTHAKRARQPLSEASNQQPLSGGEEKSCTKPSPSKKRCSDNTEVEVSNLENKQPVESTSAKSCSPSPVSPQVQPQAADTISDSVAVPASLLGMRRGLNSRLEATAASSVKTRMQKLAEQRRRWDNDDMTDDIPESSLFSPMPSEEKAASPPRPLLSNASATPVGRRGRLANLAATICSWEDDVNHSFAKQNSVQEQPGTACLSKFSSASGASARINSSSVKQEATFCSQRDGDASLNKALSSSADDASLVNASISSSVKATSPVKSTTSITDAKSCEGQNPELLPKTPISPLKTGVSKPIVKSTLSQTVPSKGELSREICLQSQSKDKSTTPGGTGIKPFLERFGERCQEHSKESPARSTPHRTPIITPNTKAIQERLFKQDTSSSTTHLAQQLKQERQKELACLRGRFDKGNIWSAEKGGNSKSKQLETKQETHCQSTPLKKHQGVSKTQSLPVTEKVTENQIPAKNSSTEPKGFTECEMTKSSPLKITLFLEEDKSLKVTSDPKVEQKIEVIREIEMSVDDDDINSSKVINDLFSDVLEEGELDMEKSQEEMDQALAESSEEQEDALNISSMSLLAPLAQTVGVVSPESLVSTPRLELKDTSRSDESPKPGKFQRTRVPRAESGDSLGSEDRDLLYSIDAYRSQRFKETERPSIKQVIVRKEDVTSKLDEKNNAFPCQVNIKQKMQELNNEINMQQTVIYQASQALNCCVDEEHGKGSLEEAEAERLLLIATGKRTLLIDELNKLKNEGPQRKNKASPQSEFMPSKGSVTLSEIRLPLKADFVCSTVQKPDAANYYYLIILKAGAENMVATPLASTSNSLNGDALTFTTTFTLQDVSNDFEINIEVYSLVQKKDPSGLDKKKKTSKSKAITPKRLLTSITTKSNIHSSVMASPGGLSAVRTSNFALVGSYTLSLSSVGNTKFVLDKVPFLSSLEGHIYLKIKCQVNSSVEERGFLTIFEDVSGFGAWHRRWCVLSGNCISYWTYPDDEKRKNPIGRINLANCTSRQIEPANREFCARRNTFELITVRPQREDDRETLVSQCRDTLCVTKNWLSADTKEERDLWMQKLNQVLVDIRLWQPDACYKPIGKP", "notes": "Endogenous intracellular protein stained in fixed, permeabilised immortalized human podocytes"}}, "molecular_target": "T1, nephrin (human, UniProt O60500 23-1241)", "T1 construct": "whole, on cells; Endogenous protein in fixed podocytes; also called NPHS1", "T1 sequence (looked up)": "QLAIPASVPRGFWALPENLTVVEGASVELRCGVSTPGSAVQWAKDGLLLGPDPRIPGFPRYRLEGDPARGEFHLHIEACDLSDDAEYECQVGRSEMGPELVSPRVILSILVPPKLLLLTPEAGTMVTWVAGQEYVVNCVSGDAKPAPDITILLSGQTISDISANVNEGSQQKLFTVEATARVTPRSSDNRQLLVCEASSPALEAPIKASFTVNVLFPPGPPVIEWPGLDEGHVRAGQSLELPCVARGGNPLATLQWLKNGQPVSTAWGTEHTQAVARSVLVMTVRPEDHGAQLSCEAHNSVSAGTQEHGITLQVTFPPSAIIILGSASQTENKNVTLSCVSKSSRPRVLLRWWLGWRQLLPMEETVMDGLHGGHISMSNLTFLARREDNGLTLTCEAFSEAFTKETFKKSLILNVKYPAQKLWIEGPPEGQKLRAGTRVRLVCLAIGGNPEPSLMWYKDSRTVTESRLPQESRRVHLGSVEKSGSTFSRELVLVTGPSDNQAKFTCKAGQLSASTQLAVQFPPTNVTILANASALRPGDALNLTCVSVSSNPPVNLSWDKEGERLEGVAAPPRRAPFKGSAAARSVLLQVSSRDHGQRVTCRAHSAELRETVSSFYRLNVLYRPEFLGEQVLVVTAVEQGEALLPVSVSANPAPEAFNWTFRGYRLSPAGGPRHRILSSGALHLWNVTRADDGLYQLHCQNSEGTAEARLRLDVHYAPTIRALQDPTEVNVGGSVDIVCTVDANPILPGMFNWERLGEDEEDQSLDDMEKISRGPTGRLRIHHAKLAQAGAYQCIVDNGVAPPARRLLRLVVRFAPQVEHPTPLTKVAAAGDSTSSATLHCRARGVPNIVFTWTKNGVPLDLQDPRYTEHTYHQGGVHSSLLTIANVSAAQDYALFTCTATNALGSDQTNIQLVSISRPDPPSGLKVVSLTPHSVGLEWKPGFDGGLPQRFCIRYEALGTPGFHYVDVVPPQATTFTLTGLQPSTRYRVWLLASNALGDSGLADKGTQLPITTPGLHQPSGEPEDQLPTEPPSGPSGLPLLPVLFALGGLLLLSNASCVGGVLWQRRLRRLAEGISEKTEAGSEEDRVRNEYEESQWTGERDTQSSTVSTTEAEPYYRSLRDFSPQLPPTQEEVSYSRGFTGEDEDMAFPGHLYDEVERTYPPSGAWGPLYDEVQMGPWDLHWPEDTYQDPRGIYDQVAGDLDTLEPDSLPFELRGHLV", "test": "only co-localisation by immunofluorescence in immortalized human podocytes (FIG. 3); no direct binding assay", "protocol": "Endogenous anillin protein staining is shown in red. Co-immunolabeling for anti-CD2AP (A) anti-RhoA (B), anti-nephrin (C) anti-INF2 (D) and anti-F-actin are shown in green. Cell nuclei are stained with DAPI (blue). Anillin is strongly expressed in both the nucleus and cytoplasm and co-localizes with CD2AP, RhoA, nephrin, INF2, F-actin and TRPC6, in cultured immortalized human podocytes. IgG served as the control antibody (0).\nImmortalized human podocytes were cultured on collagen I-coated coverslips (BD Biosciences) and treated as indicated. Cells were then fixed with 4% paraformaldehyde in PBS (Sigma). Podocytes were then washed twice with ice cold PBS prior to permeabilization with 0.1% Triton X-100 in PBS. Cells were then washed with ice cold PBS twice and blocked with buffer containing 5% goat serum prior to incubation with rabbit polyclonal Anillin antibody (Bethyl Laboratories, Montgomery, Tex.), mouse monoclonal Rho A antibody (Abeam), mouse monoclonal nephrin antibody (Abgent, Inc, San Diego, Calif.), and mouse polyclonal CD2AP antibody (Santa Cruz Biotechnologies, Santa Cruz, Calif.) overnight at 4° C. Cells were then washed with ice cold PBS and secondary Alexa Flora 488 antibody was applied (invitrogen) at a concentration of 1:1,000 for 1 hour at room temperature. […]"}
{"binder": "B1", "values": [{"measurement": "binding result", "result": "binds"}]}
